According to publication PMC5740061 (Nature Communications, 2017):

B1: SDGF-TB1G1 (TB1G1 displayed on 293F cells) [designed binder] / Biotinylated His-Avi-TEAD1(194–411) [modified: biotin (BirA-500 kit); biotin (BirA-500 kit)] [not stated] (parent complex)
chain 1: PDEYIERAKECCKKGDIQCCLRYFEESGDPNVMLICLFCP
chain 2: RSIGTTKLRLVEFSAFLEQQRDPDSYNKHLFVHIGHANHSYSDPLLESVDIRQIYDKFPEKKGGLKELFGKGPQNAFFLVKFWADLNCNIQDDAGAFYGVTSQYESSENMTVTCSTKVCSFGKQVVEKVETEYARFENGRFVYRINRSPMCEYMINFIHKLKHLPEKYMMNSVLENFTILLVVTNRDTQETLLCMACVFEVSNSEHGAQHHIYRLVKD

Variants of: B1
Test: mammalian (293F) surface display of a site-saturation mutagenesis library (every non-Cys single substitution), FACS sorting on biotinylated TEAD1 YBD, two sorting rounds, Illumina sequencing with perfect-match mapping; 20 nM biotinylated TEAD, monovalent 2-step stain (TEAD alone 30 min at 4 °C, dilute, pellet, then 20 nM streptavidin-Alexa Fluor 647), flow sorting on a BD Aria

| Variant | enrichment |
| --- | --- |
| chain 1 R7E | -0.163 log2 (fold change of variant abundance after two TEAD sorts vs input, normalised to TB1G1) |
| chain 1 R7L | -0.388 log2 (fold change of variant abundance after two TEAD sorts vs input, normalised to TB1G1) |
| chain 1 E6K | -1.13 log2 (fold change of variant abundance after two TEAD sorts vs input, normalised to TB1G1) |
| chain 1 E6N | -0.816 log2 (fold change of variant abundance after two TEAD sorts vs input, normalised to TB1G1) |
| chain 1 E6D | -0.602 log2 (fold change of variant abundance after two TEAD sorts vs input, normalised to TB1G1) |
| chain 1 E6R | -1.78 log2 (fold change of variant abundance after two TEAD sorts vs input, normalised to TB1G1) |
| chain 1 E3K | -0.5 log2 (fold change of variant abundance after two TEAD sorts vs input, normalised to TB1G1) |
| chain 1 E3W | -1.4 log2 (fold change of variant abundance after two TEAD sorts vs input, normalised to TB1G1) |
| chain 1 E3N | 0.579 log2 (fold change of variant abundance after two TEAD sorts vs input, normalised to TB1G1) |
| chain 1 K9H | -1.5 log2 (fold change of variant abundance after two TEAD sorts vs input, normalised to TB1G1) |
| chain 1 K9D | -0.576 log2 (fold change of variant abundance after two TEAD sorts vs input, normalised to TB1G1) |
| chain 1 D2F | -3.41 log2 (fold change of variant abundance after two TEAD sorts vs input, normalised to TB1G1) |
| chain 1 D2H | -1.05 log2 (fold change of variant abundance after two TEAD sorts vs input, normalised to TB1G1) |
| chain 1 D2T | -0.52 log2 (fold change of variant abundance after two TEAD sorts vs input, normalised to TB1G1) |
| chain 1 I5S | -2.04 log2 (fold change of variant abundance after two TEAD sorts vs input, normalised to TB1G1) |
| chain 1 P1L | -2.9 log2 (fold change of variant abundance after two TEAD sorts vs input, normalised to TB1G1) |
| chain 1 P1V | -0.595 log2 (fold change of variant abundance after two TEAD sorts vs input, normalised to TB1G1) |
| chain 1 Y4L | -1.81 log2 (fold change of variant abundance after two TEAD sorts vs input, normalised to TB1G1) |
| chain 1 Y4D | -1.79 log2 (fold change of variant abundance after two TEAD sorts vs input, normalised to TB1G1) |
| chain 1 Y4Q | 0.291 log2 (fold change of variant abundance after two TEAD sorts vs input, normalised to TB1G1) |
| chain 1 A8F | -4.33 log2 (fold change of variant abundance after two TEAD sorts vs input, normalised to TB1G1) |
| chain 1 A8W | -5.46 log2 (fold change of variant abundance after two TEAD sorts vs input, normalised to TB1G1) |
